For one molecule, Ratio Area V4/IgG4 and percentage of binding results are on record in patent US20260226176A1 (THERANOVIR, published 2026).

In assay [1] the target is X-ray repair cross-complementing protein 5 (human) (UniProt P13010). The assay can be described thus: co-IP from A549 WT lysate, LC-MS/MS, peak area against isotype IP.
The target of assay [2] is DNA-directed RNA polymerase I subunit RPA1 (human) (UniProt O95602). The description is as above.
In assay [3] the target is Poly [ADP-ribose] polymerase 2 (human) (UniProt Q9UGN5). Described as above.
Assay [4] concerns the target DNA ligase 3 (human) (UniProt P49916). Described as above.
The target in assay [5] is DNA topoisomerase 2-alpha (human) (UniProt P11388). The description is as above.
Assay [6] has as its target Histone H3.1 (human) (UniProt P68431). Described as above.
The target of assay [7] is Histone H2A.Z (human) (UniProt P0C0S5). The assay is described as above.
In assay [8] the target is Core histone macro-H2A.1 (human) (UniProt O75367). Described as above.
Assay [9] addresses X-ray repair cross-complementing protein 6 (human) (UniProt P12956). The assay is described as above.
Assay [10] deals with DNA-dependent protein kinase catalytic subunit (DNA-PK) (human) (UniProt P78527). The assay is described as above.
Assay [11] has as its target Replication protein A 70 kDa DNA-binding subunit (human) (UniProt P27694). Described as above.
Assay [12] deals with Poly [ADP-ribose] polymerase 1 (human) (UniProt P09874). Described as above.
For assay [13], the target named is DNA mismatch repair protein Msh2 (human) (UniProt P43246). The description is as above.
The target in assay [14] is DNA topoisomerase 2-beta (human) (UniProt Q02880). The assay is described as above.
For assay [15], the target named is Sister chromatid cohesion protein PDS5 homolog B (human) (UniProt Q9NTI5). Described as above.
Assay [16] deals with Werner syndrome ATP-dependent helicase (human) (UniProt Q14191). Described as above.
Assay [17] has as its target FACT complex subunit SPT16 (human) (UniProt Q9Y5B9). The assay is described as above.
In assay [18] the target is T1, native human NRP-1 on the cell surface (human, UniProt O14786 22-923).
T1 construct: whole, on cells; endogenous protein; isoform and glycosaminoglycan state on the cells not defined; also called native NRP-1 on MDA-MB-231 cells; native form of NRP-1 protein on the CTCs cell surface
Kind of assay: flow cytometry, MDA-MB-231 cells, 40 ug/ml, -chondroitinase. The method, then: (§1) Chondroitinase (C2905, Sigma) was reconstituted in a 0.01% BSA aqueous solution. The MDA-MB-231 cells were treated with chondroitinase (1 U/ml) for 2 hours at 37° C. The cells were detached using cell dissociation solution non-enzymatic (C5914, Sigma). 300,000 cells per condition were washed with 2% FBS in PBS and then incubated with different antibodies of interest or their respective isotype controls at 40 μg/ml for 30 min at 4° C. After wash, an Alexa 488-conjugated anti-human immunoglobulin antibody (20022-1, Biotium) was added at 10 μg/ml for 30 min at 4° C. After a final wash, fluorescence, size and granularity of cells were measured by the LSR Fortessa cytometer (BD Biosciences).

The target in assay [19] is T1, native human NRP-1 on the cell surface. The assay can be described thus: flow cytometry, MDA-MB-231 cells, 10 ug/ml, +heparinase.
Assay [20] shares this target. The assay can be described thus: flow cytometry, MDA-MB-231 cells, 40 ug/ml, +chondroitinase. The method, then:
as §1
A general note: In flow cytometry, cells or beads pass a laser one at a time.

B1: variant 4 of a-NRP1_LEP n° 1 (antibody, V domains shown)
VH: EVQLVESGGGLVQPGGSLRLSCAASGFTFSSFGMHWVRQAPGKGLEWVAYISSGSSTIHYADSVKGRFTISRDNAKNSLYLQMNSLRAEDTAMYYCARRHYGSSRYWYFDVWGQGTTVTVSS
VL: EIVLTQSPATLSLSPGERATLSCRASQSVKSYLAWYQQKPGQAPRLLIYYASSRATGIPARFSGSGSGTDFTLTISSLEPEDFAVYYCQQYSESPYTFGQGTKLEIK
notes: humanized variant of 21B10; isotype control hIgG4; also called variant 4 a-NRP1_LEP; variant n°4 a-NRP1_LEP
For the molecule B1, the Ratio Area V4/IgG4 amounted to 2.3 in [1]; 3210 in assay [2]; 259 in assay [3]; 78.8 in assay [4]; 1440 in [5]; 82.5 in assay [6]. Also, the Ratio Area V4/IgG4 turned out to be 22 in [7]; 1130 in assay [8]; 1.9 in assay [9]; 6.06 in assay [10]; 2 in assay [11]; 546 in assay [12]. Besides, the Ratio Area V4/IgG4 in assay [13] turned out to be 1; in assay [14], 369; in [15], 358; in assay [16], 540; in assay [17], 6030. For the same molecule, the percentage of binding in [18] worked out at 93.2%; in [19] it was 10.1%; in assay [20], 86.4%.
